How the values were obtained:
alpha-tropomyosin [1] = biological target: T1, alpha-tropomyosin (Oryctolagus cuniculus, UniProt P58772); test: fluorescence titration
alpha-tropomyosin [2] = biological target: T1, alpha-tropomyosin; test: ITC

T1 sequence (P58772 whole entry): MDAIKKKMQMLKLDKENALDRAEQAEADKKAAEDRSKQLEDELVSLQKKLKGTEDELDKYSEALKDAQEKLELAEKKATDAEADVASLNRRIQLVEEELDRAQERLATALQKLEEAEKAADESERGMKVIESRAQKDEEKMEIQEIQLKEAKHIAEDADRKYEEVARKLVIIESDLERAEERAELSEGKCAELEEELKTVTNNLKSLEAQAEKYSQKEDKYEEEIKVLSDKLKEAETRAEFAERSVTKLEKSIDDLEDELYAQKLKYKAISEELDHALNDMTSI

Kd (alpha-tropomyosin [1]) [µM]	Kd (alpha-tropomyosin [2]) [µM]	Binder
15		ENREVGDWHKNIDALSGMEGRKKKFES [cardiac troponin I C-terminal peptide HcTnI-C27-H 184-210]
8	11	ENREVGDWRKNIDALSGMEGRKKKFES [cardiac troponin I C-terminal peptide HcTnI-C27 184-210]

From PMC7948816 (2021)
